Test results taken from the Immune Epitope Database (IEDB).
pIC50, pKd: −log10 of the molar value.

Experiments:
HLA-C*14:02 = assay: IEDB peptide-MHC binding, purified MHC/direct/fluorescence; filed as Kd, often an IC50 or EC50 that approximates it; ≥ and ≤ were set here for values at or beyond the usual limits of such assays; conditions: source organism: Human immunodeficiency virus 1
HLA-B*08:01 [1] = assay: IEDB peptide-MHC binding, purified MHC/competitive/fluorescence; ≥ and ≤ were set here for values at or beyond the usual limits of such assays
HLA-A*24:02 [2] = assay: as above
HLA-B*07:02 [3] = assay: as above
HLA-A*02:01 [4] = assay: as above
HLA-B*27:05 = assay: IEDB peptide-MHC binding, purified MHC/direct/fluorescence; filed as Kd, often an IC50 or EC50 that approximates it; ≥ and ≤ were set here for values at or beyond the usual limits of such assays
HLA-C*12:03 = assay: as above
HLA-B*07:02 [5] = assay: as above
HLA-C*05:01 = assay: as above
HLA-B*46:01 = assay: as above
HLA-A*03:01 [6] = assay: as above
HLA-B*15:01 [7] = assay: as above
HLA-B*15:09 = assay: as above; conditions: source organism: West Nile virus strain PTRoxo
HLA-B*44:02 = assay: as above
HLA-B*57:01 = assay: as above
HLA-B*58:01 = assay: as above
HLA-A*31:01 = assay: as above
HLA-A*11:01 = assay: as above
HLA-B*40:01 = assay: as above; conditions: source organism: West Nile virus
HLA-B*48:01 = assay: as above; conditions: source organism: West Nile virus
HLA-B*18:01 = assay: as above
HLA-B*15:01 [8] = assay: IEDB peptide-MHC binding, purified MHC/competitive/fluorescence; ≥ and ≤ were set here for values at or beyond the usual limits of such assays
HLA-A*01:01 [9] = assay: IEDB peptide-MHC binding, purified MHC/direct/fluorescence; filed as Kd, often an IC50 or EC50 that approximates it; ≥ and ≤ were set here for values at or beyond the usual limits of such assays
HLA-A*69:01 [10] = assay: as above; conditions: source organism: Yellow fever virus 1899/81
HLA-A*29:02 = assay: as above; conditions: source organism: Yellow fever virus 1899/81
HLA-A*03:01 [11] = assay: IEDB peptide-MHC binding, purified MHC/competitive/fluorescence; ≥ and ≤ were set here for values at or beyond the usual limits of such assays; conditions: source organism: Vaccinia virus WR
HLA-A*02:19 = assay: IEDB peptide-MHC binding, purified MHC/competitive/fluorescence; filed as Kd, often an IC50 or EC50 that approximates it; ≥ and ≤ were set here for values at or beyond the usual limits of such assays; conditions: source organism: Human immunodeficiency virus 1
HLA-A*02:06 = assay: as above
HLA-A*02:16 = assay: as above; conditions: source organism: Human immunodeficiency virus 1
HLA-A*69:01 [12] = assay: as above; conditions: source organism: Human immunodeficiency virus 1
HLA-A*02:12 = assay: as above; conditions: source organism: Human immunodeficiency virus 1
HLA-A*02:03 = assay: as above; conditions: source organism: Human immunodeficiency virus 1
HLA-A*02:01 [13] = assay: as above
HLA-A*02:11 = assay: as above; conditions: source organism: Human immunodeficiency virus 1
HLA-B*08:01 [14] = assay: as above; conditions: source organism: Influenza A virus (A/Fort Monmouth/1/1947-mouse adapted(H1N1))
HLA-A*68:02 = assay: as above; conditions: source organism: Influenza A virus (A/Fort Monmouth/1/1947-mouse adapted(H1N1))
HLA-B*15:17 = assay: as above; conditions: source organism: Influenza A virus (A/Fort Monmouth/1/1947-mouse adapted(H1N1))
HLA-B*08:02 = assay: IEDB peptide-MHC binding, purified MHC/direct/fluorescence; filed as Kd, often an IC50 or EC50 that approximates it; ≥ and ≤ were set here for values at or beyond the usual limits of such assays; conditions: source organism: Influenza A virus(A/swine/Henan/5/2004(H9N2))
HLA-C*07:02 = assay: as above; conditions: source organism: Influenza A virus (A/Fort Monmouth/1/1947-mouse adapted(H1N1))
HLA-A*26:01 = assay: as above; conditions: source organism: Influenza A virus(A/swine/Henan/5/2004(H9N2))
HLA-A*24:02 [15] = assay: as above; conditions: source organism: Influenza A virus (A/quail/Hong Kong/FY298/00(H9N2))
HLA-A*24:03 = assay: as above; conditions: source organism: Influenza A virus (A/quail/Hong Kong/FY298/00(H9N2))
HLA-A*02:01 [16] = assay: as above; conditions: source organism: Influenza A virus (A/quail/Hong Kong/FY298/00(H9N2))
HLA-A*01:01 [17] = assay: IEDB peptide-MHC binding, purified MHC/competitive/fluorescence; filed as Kd, often an IC50 or EC50 that approximates it; ≥ and ≤ were set here for values at or beyond the usual limits of such assays; conditions: source organism: Influenza A virus (A/Harbin/1/1988(H1N2))
[18] = source organism: Zaire ebolavirus
[19] = source organism: West Nile virus
[20] = source organism: Vaccinia virus Copenhagen
[21] = source organism: Yellow fever virus 1899/81
[22] = source organism: Vaccinia virus WR
[23] = source organism: Human immunodeficiency virus 1
[24] = source organism: Influenza A virus (A/quail/Hong Kong/FY298/00(H9N2))
[25] = source organism: Influenza A virus (A/Hong Kong/532/1997(H5N1))

AFHHVAREL
pKd (HLA-C*14:02): ≥ 9.00

ARKHHTKID
pIC50 (HLA-B*08:01 [1]; source organism: Variola virus): 4.38
pIC50 (HLA-A*24:02 [2]; source organism: Variola virus): 7.60

FPQLSAIAL
pIC50 (HLA-B*07:02 [3]; [18]): 4.87
pIC50 (HLA-B*08:01 [1]; [18]): ≤ 3.89
pIC50 (HLA-A*24:02 [2]; [18]): 4.75
pIC50 (HLA-A*02:01 [4]; [18]): ≤ 3.75

FVDVGVSAL
pKd (HLA-B*27:05; [19]): ≤ 4.70
pKd (HLA-C*12:03; [19]): ≤ 4.70
pKd (HLA-B*07:02 [5]; [19]): ≤ 4.70
pKd (HLA-C*05:01; [19]): ≥ 9.00
pKd (HLA-B*46:01; [19]): ≤ 4.70
pKd (HLA-A*03:01 [6]; [19]): ≤ 4.70
pKd (HLA-B*15:01 [7]; [19]): ≤ 4.70
pKd (HLA-B*15:09): 5.66
pKd (HLA-B*44:02; [19]): ≤ 4.70
pKd (HLA-B*57:01; [19]): ≤ 4.70
pKd (HLA-B*58:01; [19]): ≤ 4.70
pKd (HLA-A*31:01; [19]): ≤ 4.70
pKd (HLA-A*11:01; [19]): ≤ 4.70
pKd (HLA-B*40:01): ≤ 4.70
pKd (HLA-B*48:01): ≤ 4.70
pKd (HLA-B*18:01; [19]): ≤ 4.70

IFRLMRTNF
pIC50 (HLA-B*07:02 [3]; [18]): 5.04
pIC50 (HLA-B*08:01 [1]; [18]): 4.26
pIC50 (HLA-B*15:01 [8]; [18]): 5.66
pIC50 (HLA-A*24:02 [2]; [18]): 7.40

LAKAIITPI
pIC50 (HLA-B*07:02 [3]; [20]): 4.25
pIC50 (HLA-B*08:01 [1]; [20]): ≤ 3.86
pIC50 (HLA-B*15:01 [8]; [20]): 4.61
pIC50 (HLA-A*24:02 [2]; [20]): 5.20
pIC50 (HLA-A*02:01 [4]; [20]): 4.86

RADEINAIL
pKd (HLA-B*27:05; [21]): ≤ 4.70
pKd (HLA-C*05:01; [21]): ≥ 9.00
pKd (HLA-A*01:01 [9]; [21]): ≤ 4.70
pKd (HLA-B*46:01; [21]): ≤ 4.70
pKd (HLA-A*69:01 [10]): ≤ 4.70
pKd (HLA-A*03:01 [6]; [21]): ≤ 4.70
pKd (HLA-B*15:01 [7]; [21]): ≤ 4.70
pKd (HLA-A*29:02): ≤ 4.70
pKd (HLA-B*44:02; [21]): ≤ 4.70
pKd (HLA-B*57:01; [21]): ≤ 4.70
pKd (HLA-A*31:01; [21]): ≤ 4.70
pKd (HLA-A*11:01; [21]): ≤ 4.70
pKd (HLA-B*18:01; [21]): ≤ 4.70

RLPKRSVML
pIC50 (HLA-B*07:02 [3]; [22]): 5.12
pIC50 (HLA-B*08:01 [1]; [22]): 4.82
pIC50 (HLA-A*03:01 [11]): 4.47
pIC50 (HLA-B*15:01 [8]; [22]): 4.90
pIC50 (HLA-A*24:02 [2]; [22]): 7.28
pIC50 (HLA-A*02:01 [4]; [22]): 5.58

SLADQLIHL
pKd (HLA-A*02:19): 8.33
pKd (HLA-A*02:06; [23]): ≥ 10.00
pKd (HLA-A*02:16): 9.22
pKd (HLA-A*69:01 [12]): 6.56
pKd (HLA-A*02:12): 8.55
pKd (HLA-A*02:03): 9.07
pKd (HLA-A*02:01 [13]; [23]): 7.37
pKd (HLA-A*02:11): 9.84

SYLIRALTL
pKd (HLA-A*02:06; source organism: Influenza A virus (A/Fort Monmouth/1/1947-mouse adapted(H1N1))): 5.85
pKd (HLA-B*08:01 [14]): 5.76
pKd (HLA-A*68:02): 5.93
pKd (HLA-B*15:17): 6.71
pKd (HLA-B*27:05; [24]): ≤ 4.70
pKd (HLA-B*07:02 [5]; [24]): ≤ 4.70
pKd (HLA-B*08:02): ≤ 4.70
pKd (HLA-A*01:01 [9]; [24]): ≤ 4.70
pKd (HLA-C*07:02): 7.26
pKd (HLA-A*03:01 [6]; [24]): ≤ 4.70
pKd (HLA-B*15:01 [7]; [24]): ≤ 4.70
pKd (HLA-A*26:01): ≤ 4.70
pKd (HLA-A*24:02 [15]): 8.41
pKd (HLA-A*24:03): ≥ 9.00
pKd (HLA-B*57:01; [24]): ≤ 4.70
pKd (HLA-B*58:01; [24]): ≤ 4.70
pKd (HLA-A*31:01; [24]): ≤ 4.70
pKd (HLA-A*11:01; [24]): ≤ 4.70
pKd (HLA-A*02:01 [16]): ≤ 4.70
pKd (HLA-B*18:01; [24]): ≤ 4.70

YLMAWKQVL
pKd (HLA-A*02:01 [13]; [25]): 9.40
pKd (HLA-C*12:03; [25]): 7.66

YVSVVSSHY
pKd (HLA-A*01:01 [17]): 6.26
